Test results published in a protein production outcome set (Wang et al. 2014).

Assay: label from the status in PepcDB records

Row | Sequence | protein production
1 | MFRPQDDFTYLMPVHFGGGKFDPETLVTQKATALSLSFETERDLLENYIPEGFELLAPEVQVAFNKFTEINWLHGGQYNLINVAAPVRFHGKKDELDGAYTLVVWENKTAPILGGREQTGIPKIYADIEDLHIVRPHFATTVSYEGNTFLNMDFEATGSITGRDLDALKSQFLTMNTLGWRYIPKVGAPGAELSQFVLYPQGMEVETAEVGKGSLKWTELTPMQSPAQYYIVNSLASLPIKRVTQAVLVEGRAILRAMGARVIE | not failed
2 | MFRQLKKNLVATLIAAMTIGQVAPAFADSADTLPDMGTSAGSTLSIGQEMQMGDYYVRQLRGSAPLINDPLLTQYINSLGMRLVSHANSVKTPFHFFLINNDEINAFAFFGGNVVLHSALFRYSDNESQLASVMAHEISHVTQRHLARAMEDQQRSAPLTWVGALGSILLAMASPQAGMAALTGTLAGTRQGMISFTQQNEQEADRIGIQVLQRSGFDPQAMPTFLEKLLDQARYSSRPPEILLTHPLPESRLADARNRANQMRPMVVQSSEDFYLAKARTLGMYNSGRNQLTSDLLDEWAKGNVRQQRAAQYGRALQAMEANKYDEARKTLQPLLAAEPGNAWYLDLATDIDLGQNKANEAINRLKNARDLRTNPVLQLNLANAYLQGGQPQEAANILNRYTFNNKDDSNGWDLLAQAEAALNNRDQELAARAEGYALAGRLDQAISLLSSASSQVKLGSLQQARYDARIDQLRQLQERFKPYTKMLEHHHHHH | not failed
3 | MFSFLEKNPFFFTLAFIFVFAIAGLVEILPNFFKSARPIEGLRPYTVLETAGRQIYIQEGCYHCHSQLIRPFQAEVDRYGAYSLSGEYAYDRPFLWGSKRIGPDLHRVGDYRTTDWHEKHMFDPKSVVPHSIMPAYKHLFTKKSDFDTAYAEALTQKKVFGVPYDTENGVKLGSVEEAKKAYLEEAKKITADMKDKRVLEAIERGEVLEIVALIAYLNSLGNSRINANQNAK | failed
4 | MFSFVQMTGCLLPLTALTPLSHCTRPRNALALLQSSWKGGSLAISLVRNAVAAVLAAALSVPVSADVGAGSYLAARQAVFANDFSSAADYFARALAIDPQNPALMENMVLSQLALGRLEQAYPVAQLMQEAGLQSQVANIAIVVHLLSEERYQEVLDRDPEMRGVGKLVDGLVAGWAEMGLGSVARALAQFDKVADEAGLRGFANYHKAMALASVGDFEGAEALFAADDGALTTISRRAALARAEILSQLDRNDQALEMLADVFSGGFDPALSDIADRLVAGETLPFSLVRSVRDGLAEVFFTIGAALNGEASDDFTLVYIRSAVHLRPDHIDALLMTAGLLESLGQYDLAVATYKQIPNDSPDYHAAELGRAEALRRSAKPDAAIEVLEKLAKDYPSQPQAFVALGDLQRQQEAYDRAATAYDKALQLTDPGAPNMWFLHYARGICHERLGNWPGAEADFRAALELNPDQPQVLNYLGYSLVEKQEKLDEALDLIERAVAARPDSGYIVDSLGWVLFRLGRYDEAVGHMERAVELMPVDPVVNDHLGDVLWAVGRVREAEFQWRRALSFIKADDTDGEADPERIRRKLEIGLDRVLAEEGVPPLKVANGD | failed
5 | MFSIIIPIYNSENYLRYSIESVLNQSIGFKENIELILIDDGSVDSSPQICESFKNLYPNNIKIMKIENSGPSAARNCGLSNVSERSKFIGFLDSDDAFSQNALQSVYDFFCDSEHVNIAVLPVYYTGEKEGGHKLNNRFEKGTRVINILNDYKAIHFYIGGTFYRRHTLTSTVLFDESIKFWEDAIFFNQLLLKEKRYGAVAEGKYFYRKRKEQDSLVDRSWFNKKRYTYLLNECYMTLLMDSFNKYDIVLPYLQFLIVYHIKLFLYPNYRDVYKSVLDQQEQRVFVDDFIKVLKFIDPQFIKEQDMPMYYKEFMFHLLKENTEALENIKKERVLHSSCTVTSAKIKGLRLELTGHFINQYYEMKENDRIYIKYFKRLKKCKRKELKKTIEVWGYKLRDFRYAGFVVEIPIWAFAFDFVLKTPNDSLELNHVNIFKSLLTRVFKKRLEHHHHHH | not failed
6 | MFSKIFKSFFYSWLATLFSTSLILCICFGNSHPVAIVNAQTPDAYKLVNQGIESYKKGDFHAAIKPWEAALDSYQKNNDFRNIAIINENLARTYQQLGNKSLTLSYWEKVKDYYHSQKNLQKVGRILTEIAQIYSNSGQTKKSYQSFMWCKYINLSNRECITNCPGTTR | failed
7 | MFSLSTQTMSAVAQRHPQTPISTITASNRQSSLHFKINSNNPEAHAQMRSGDEKGAIASITIEFQSVEQLHLHLGIMHLLSGDMKGAIEDFNQAILINPNYAEAYKGRGVAKVQLGDEKEAIEDLQKAADIFQEQEETAKYQEVINIIRQINDK | failed
8 | MFTGFGAASFSAPAKAAAQTNTLSENTNQSAAELVKNLYNTAYKGEMPQQAQGLTINKSTKGDVHAAFGEPERPVGGDNRFDLYHWNMGQPGYGFSYHKDMTISEIRYFGTGVERQLNLGGVTPEVLQKQLGPVNRVLTVPFTDEIDYVYDTGRYELHFVIGTDQTADHVNLKAKLEHHHHHH | not failed
9 | MFTNSGVFIMYKILEKKEIAMRNTWYKIYAPHVAKKVQPGQFVIVRAFPNGERIPLTPIMWDREEGWIVLVAFTKGKTTMKMAMELKEGDEILNVAGPLGNPAPMEKFGKILAIGAYVGIAEVYPIAKAWQEIGNDVTTLHVTFEPMVILKDYFEKAVSRHIVEPVKIDQEKSFQENTKNVTKALTAKVKELLDNENWDLVFMVGPPGDQKAVFEVVKKYGIPMKVDLHPIMVDGTGMCGACRVTVGGEVKFACVDGPEFDAYLVDWDELIHRVGFYSKLEKLALEKYMEELKAKGVI | failed
10 | MFVGHLPGAYLIFRVVTPRIERMAFTAAMLGAIAPDLDMLRFYFVDGRAFHHHEYLTHRPILWTGLLLCGVLIGMRSRRIGVPLAFFGAGGLVHMLLDSIAGKIAWAWPVSDFAAPLVVVPATQSHWILSFLSHWTFAVELGITVLALVLWRWLPRRATARR | failed
11 | MFWTELCFILVALMIGARIGGVFLGMVGGLGVGVMVFIFGLTPSTPPIDVILIILSVVLAAASLQASGGLDLLVKLAEKILRRHPRYITLLAPFICYIFTFMSGTGHVVYSLLPVISEVARDSGIRPERPLSISVIASQQAITASPISAAMAAMIGLMAPLGVSISTIMMICVPATLIGVAMGAIATFNKGKELKDDPEYQRRLAEGLIKPAQKESKNTVVTSRAKLSVALFLTSAIVIVLLGLIPALRPMVETAKGLQPLSMSAAIQITMLSFACLIVLLCRPQVDQIISGTVFRAGALAIVCAFGLAWMSETFVNGHIALIKAEVQTLLQQHTWLIAIMMFFVSAMVSSQAATTLILLPLGLALGLPAYALIGSWPAVNGYFFIPVAGQCLAALAFDDTGTTRIGKYVLNHSFMRPGLVNVIVSVIVGLLIGKMVLA | failed
12 | MFYTTKSSMNQHNIFFGSSHVVVPVTKPFPFSLDGHVEDEDNLESQYLQWLEERVDENNNINDDQSVGERDVGDDDIDRLADKFIARCHEKFLLEKVESYRRFQDMLARSL | failed
13 | MGAAAAPEVNMELVGHFGGTTDAVDVAGNYAYVGQGQDFLILDITNPSSPVLVSKIMTEGFVRDIKVSRNYAYVADDDNGLVIVDISNPSSPTLKGSYNIPGYTYCITVSGNYAYVADNDGLVIVDISNPSDPILKGRYAGPTGDVAVYGNYAYVADWGNGLMIVDISNPSSPVLKGSYDTAGDIYGVSISGNYAYVADGDTGLVIVDISNPSSPTLKGNYNTAGIACDVSVLGNYAYVADNDNGLVIVDISDPSSPVLKGNGSTTGYAHGIEVSGNYAYVANSNTGLVIVDISNPSSPTLKGSCDTIVRAKSIAVSGNYAYIADWDNGLVIVDISNPSSPFLKGSCDTPRSAQGVAVSGNYAYVADDDGLVIVDISNPSFPILNKSYNTGGWAQGITVSGNYAYVIDMANGIFIVDISNPSSPILEGMYDTSPIIIENYDYTGSIWSVSVSGNYAYVADEGNGLLIVDISNPSSPILKGSYDTAGLAYDVAVSGNYAYVADSKNGLAIIDISNPSSPILVGNYNTSGYAECVSISGNYAYVAVDDSLVVVDISNPSSPILKGLYAGSAGDIAVSGNYVYASEGVNGLVILKANPESAFTVADFSSNITSGYAPLSIQFNDHSQNATSWNWDFGDGYNSTNQNPIHTYSSAGTYTVNLTVINENRTASKVAKIFVLNTSLEHHHHHH | failed
14 | MGAAKPIFVEHSIVIDRPAQQVYDYWRKLENLPQIMSHLESVTVLDDKRSRWVAKAPLGTHVEWEAEVVNDKPGERIGWHSLPGATVDNAGSVQFESLPDDKTRVHVALSYRPPAGPLGAAVAKLFGEEPSQQIAEDLQKFKATFEGLEHHHHHH | failed
15 | MGAGSQTTGAGQKKVQTITVGTGTQFPNICFIDEKGDLTGYDVELIKELDKRLPHYKFTFKTMEFSNLLVSLGQHKVDIVAHQMEKSKEREKKFLFNKVAYNHFPLKITVLQNNDTIRGIEDLKGKRVITSATSNGALVLKKWNEDNGRPFEIAYEGQGANETANQLKSGRADATISTPFAVDFQNKTSTIKEKTVGNVLSNAKVYFMFNKNEQTLSDDIDKALQEIIDDGTLKRLSLKWLGDDYSKEQYLEHHHHHH | not failed
16 | MGANLNSAYAAGVKIAIVMGSKSDWATMQFAADVLTTLNVPFHVEVVSAHRTPDRLFSFAEQAEANGLHVIIAGAGGAAHLPGMLAAKTLVPVLGVPVQSAALSGVDSLYSIVQMPRGIPVGTLAIGKAGAANAALLAAQILALHDTELAGRLAHWRQSQTDDVLDNPDPREEA | not failed
17 | MGAVVVKDLRKRIGKKEILKGISFEIEEGEIFGLIGPNGAGKTTTLRIISTLIKPSSGIVTVFGKNVVEEPHEVRKLISYLPEEAGAYRNMQGIEYLRFVAGFYASSSSEIEEMVERATEIAGLGEKIKDRVSTYSKGMVRKLLIARALMVNPRLAILDEPTSGLDVLNAREVRKILKQASQEGLTILVSSHNMLEVEFLCDRIALIHNGTIVETGTVEELKERYKAQNIEEVFEEVVKCSENF | not failed
18 | MGDASINIDKETVANYFVIKQGGPINRDHWTVTANTEEKTGEVSAAYPHNGQTISLIDGEINTFWHSKWQGGEVAPPYEIILDMGKENSVSQLGLIARQNALTSMNLEIYAGDDGETWNLIGKYFFDGSIKTEQMVPVKACDARWIRIYIPTLGSGSSVGHLAEIYVYGTDKLEHHHHHH | not failed
19 | MGDREKNVGFAASLNILFTIIELIGGILTNSLALLADAMHDFADSLALIVAWFAEKKAKKPATSKMTFGYRRLSLLSAAFATIVLIAGSLFILSQAIPRLLNPEPVNAEGMFLIAIIGVTINGLGYFRLKKGISQNEKILSWHLLEDILGWVVLLIGSVIIGFWNQPIIDPIMTIGFTIFVLWGVFKNAKETFNLLLEGVPEYIDIDEVKESILSVEGTKAVHDLHIWSLEGETDILTAHVVVEDEYLARPDKMRQSIKSRLEKHQIEHSTLELESEGFCSGTECIFELKG | failed
20 | MGDSAPARIDTLEIKLLFAGDIMTHGPQIESAKCEGGRVYDFSSSFDTLASRIGAADLAIGNLETTFAGAPYSGYPTFSSPDAMGEALKNAGFDVLTTANNHTADKGKKGIIRTLDMLDSLGIAHTGSYRDIFDRDKMTPLILEVKGVRIAILAYTYGTNGMPVPAPTWVDPIDTVMIKKDLLRADSLGADYRIVQIHWGIEYRKEPDSEQLELARKLHRYGADAIIGSHPHVVQGSQWLKSDSKTSFVIYSMGNFISNQRKPAATRGGMLLSLTLRKVGDRITTHPDYQYVFVNKRTPQGKRVYRLLPVDPFSSDTLPSLPPEEQRDYKEFAKYYQMIPLVLIEREDNRIRNRLQVSQRAFLEHHHHHH | failed
21 | MGDTKVETISRLAQWRIENFGPCSFKKSDPFKVGIWNWHLSIERNRYLSVRLFPELSRVSKEQPPVAKFVLRVSNVGPNRRFYISPVYEKLLRTTDDCVWHVDSSFHGRFTIDVEFLDLKICPVNGGEASPVWPTDATMQSISTQTTLKCLSRMLEESILTDVIIHTADGTLSAHKAILSASSTVFKSMFHHDLMEKESSTIHIDDMSRESCMALLSYLYGNITQEEFWKHRLALLGAANKYDITDLKAACEESLMEDINSSNVLERLQEAWLYQLEKLKKGCLMYLFDFGKIYDVREEISSFFRQADRELMLEMFQEVLSVWKPV | failed
